# Reference: publication PMC9972897 (Science immunology, 2023)
# Residue numbers refer to the chain shown, from its start.
# B1: rbd.045 (antibody, V domains shown)
# VH: QVQLQESGPGLVKPSETLSLTCTVSGGAFRSFFWTWIRQPPGKGLEWIGNIYYSGSTNYNPSLKSRVTISQDMSENQFSLKLSSVTAADTAVYYCARSQWLRGNFDHWGQGILVTVSS
# VL: NFMLTQPHSVSESPGKTVTISCTATSGYIASNYVQWYQQRPGSAPTTVIYEDNQRPSGVPDRFSGSIDSSSNSASLTISGLKPEDEADYYCQSFDTAYAVFGGGTQLTVL
# B2: sd1.127 (antibody, V domains shown)
# VH: EVQLVESGGALVKPGGSLTLSCVASGFTFSHAWMTWVRQAPGKGLEWVGRIKTKTEGGTIDYAAPLRGRFTISRDDSKNTLYLRMNSLKIEDTAKYYCTTHSSPDYWGQGTLVTVSS
# VL: DIQMTQSPSSLSASIGDRVTITCRASQGIGNSLLWYQQKRGKVPKLLIYAASTLQSGVPSRFSGSGSGTDFTLTISSLQPEDVATYYCQRYNSAPLTFGGGTKVEIK
# B3: rbd.048 (antibody, V domains shown)
# VH: EVQLVESGGGLVQPGGSLRLSCAASGFTVSSNYMTWVRQAPGKGLEWVSVIYSGGSTFYTDSVKGRFTISRDNSKNTLYLQMNSLRAEDTAVYYCARDVVYYGMDVWGQGTTVTVSS
# VL: DIQMTQSPSSLSASVGDRVTITCRASQSISSYLNWYQQKPGKAPKLLIYAASSLQSGVPSRFSGSGSGTDFTLTISSLQPEDFATYYCQESYSNSPYTFGQGTKLEIK
# B4: sd1.107 (antibody, V domains shown)
# VH: QVQLVQSGAEVKKPGSSVKVSCKASGGTFSSYAISWVRQAPGQGLEWMGGIIPMFGTTNYAQKFQGRVTITADESTSTAYMELSSLRSEDTAVYYCARVTHLNWRRGYEVGRISGAFDIWGQGTMVTVSS
# VL: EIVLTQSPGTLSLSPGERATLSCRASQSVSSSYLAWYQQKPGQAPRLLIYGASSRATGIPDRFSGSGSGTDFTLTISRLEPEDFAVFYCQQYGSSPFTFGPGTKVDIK
# B5: sd1.129 (antibody, V domains shown)
# VH: QVQLVQSGAEVKRPGSSVKVSCKASGGAFSNYAISWVRQAPGQGLEWMGGIIPIFGTTNYAQRFQGRVTISADESTGTAYMELSSLRFADTAIYYCARADAYSGSYYPSANWFDPWGQGTLVTVSS
# VL: EIVLTQSPATLSLSPGERATLSCRASQSVSNYLAWYQQKPGQAPRLLIYDASNRATGIPARFSGSGSGTDFTLTISSLEPEDFAVYYCQQRQNWPPGWTFGQGTKVEIK
# B6: sd1.032 (antibody, V domains shown)
# VH: QVQLVQSGAEVKRPGSSVKVSCKASGGTFNNYAMTWVRQAPGQGLEWMGGIIPMLGTENYAQKFQGRVTITADESTSTAHMELSSLRSEDTAVYYCARLTVPTPHSYYSYGLDAWGQGTTVTVSS
# VL: QSALTQPASVSGSPGQSITISCTGTSSDVGSYNLVSWFQQHAGRAPKLMIYEGNKRPSGISNRFSGSKSGNTASLTISGLQAEDEADYYCCSYAGSSTHVFGTGTKVTVL
# B7: rbd.035 (antibody, V domains shown)
# VH: EVQLLESGGGLIEPGGSLRLSCAASGFPFNTFAMTWVRQPPGKGLEWVATISSRGDYTFYADFVKGRFSISRDNANNALWLDMSGLRAEDTALYYCAKGESGYDLYLYGLDLWGQGTTVTVSS
# VL: DIQMTQSPSSLSASVGDGVTITCRASQNINNYLSWYQKKAGKAPKLLIYGASTLHSGVPSRFSGSGSGTDFTLTISSLQPEDFASYYCQQNSPTPPWTFGQGTKVEIK
# B8: rbd.038 (antibody, V domains shown)
# VH: QVQLVQSGAEVKKPGASVKVSCKASGYTFSGYYMHWVRQAPGQGLEWVGWISPTSGGTKYAQKFQGRVTMTRDTSITTVYMELNRLRSDDTAVYYCAREPFPYCTSDICHSNYFYYYAMDVWGQGTTVTVSS
# VL: QSALTQPPSASGSPGQSVTISCTGSSSDLGDHNYVSWYQQHPGKAPKVMIYEVSKRPSGVPDRFSGSKSGNTASLTVSGLQAEDEADYYCSSYAGSLYVFGTGTKVTVL
# B9: sd1.151 (antibody, V domains shown)
# VH: EVQLVESGGGLVKPGGSLRLSCAVSGFTFSNAWMTWVRQAPGKGLEWVGRIKTKPEGGTTDYATPVKGRFTISRDDSIDTLYLQMNSLKTEDTAVYYCSTFSSPDHWGQGTLVTVSS
# VL: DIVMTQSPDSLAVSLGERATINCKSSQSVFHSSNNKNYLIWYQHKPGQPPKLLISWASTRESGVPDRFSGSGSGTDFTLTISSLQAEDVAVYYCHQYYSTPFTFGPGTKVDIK
# B10: sd1.039 (antibody, V domains shown)
# VH: EVQLVQSGAEVKKPGESLKISCKASGYSFPTYWIGWVRQMPGKGLEWMGIIYPGDSDTRYSPSFQGQVTISADKSISTAYLQWSSLKASDTAIYYCARYGDSHIDSWGQGTLVTVSS
# VL: QSVLTQPRSASASLGASVTLNCTLSSGYSKYKVEWYQQRPGKGPRFLMRVGAGGIVGSKGDGIPDRFSVLGSGLNRYLIIKNIQQEDESDYHCGADHGSGSNFAYVVFGGGTKLTVL
# B11: sd1.047 (antibody, V domains shown)
# VH: EVQLVESGGGVVEPGRSLRLSCVASGFPFKNYGMHWVRQAPGKGLEWMAVISYDGRLEYYAESVQGRFTISRDTSRKTLYLQMDSLRVDDTAVYYCAKDGVMGFCSGDDCTPPFDSWGQGTLVTVSS
# VL: QSALTQPASVSGSPGQSITISCTGTSSDVGGYNYVSWFQQYPGKAPQLLIYEVSNRPSGVSNRFSGSKSGNTASLTISGLQAEDEADYYCSSYAGSPYVFGIGTRVTVL
# B12: rbd.031 (antibody, V domains shown)
# VH: EVQLVESGGGVVQPGRSLRLSCAASGFTFKTYGMHWVRQAPGKGLEWVAVISYEGSNEYYAESVKGRFTISRDNSKNTLYLHMNSLRAEDTAVYYCAKGEYYYHSSTYYYLDYWGRGTLVTVSS
# VL: DIQMTQSPSTLSASVGDRVTITCRASQSISSWLAWYQQKPGKAPKVLIYDASSLQSGVPLRFSGSGSGTEFTLTISSLQPDDFATYYCQQYDTYWTFGQGTKVEIK
# B13: sd1.034 (antibody, V domains shown)
# VH: EVQLVESGGGVVQPGRSLRLSCAASGFSFSNYGMHWVRQAPGKGLEWVAVISYDGSHKSFADSVKGRFTISRDNSKNTLNLQMNSLRREDTAVYYCATDQGGSLGYWGQGTLVTVSS
# VL: QSALTQPASVSGSPGQSITISCTGTSGDVGGYNYVSWYQHHPGKAPKLMIYDVSNRPSGVSNRFSGSKSGNTASLTISGLQAEDEADYYCSSYTSTSTSWVFGGGTKLTVL
# B14: sd1.102 (antibody, V domains shown)
# VH: QVQLVQSGAEVKKPGSSVKVSCKASGGTFSSYAISWVRQAPGQGLEWMGGIIPLYGTANYAQKFQGRVTITADESTSTTYMELSSLTSEDTAVYYCVRFRGGDYYYYYGMDVWGQGTTVTVSS
# VL: EIVMTQSPATLSVSPGESATLSCRASQTVSTNLAWYQQKPGQAPRLLIFGASTRATGIPARFSGSGSGTEFTLSISSLQSEDFAVYYCHQYNSRRTFGQGTKLEIK
# B15: sd1.033 (antibody, V domains shown)
# VH: QVQLVQSGAEVKKPGSSVKVSCKASGGVYSTYAVSWVRQAPGQGLEWIGGIIPMFGTANYAQNFQGRVTITADESTRTAYMEVSSLRSEDTAVYYCASPSAPTYYYDSSRYYSFDYWGQGTLVTVSS
# VL: EIVLTQSPGTLSLSPGERATLSCRASQSVSSNFLAWFQQKPGQPPRLLIYGASSRATGIPDRFSGSGSGTDFTLTISRLVPEDFAVYFCQQYGSSRYSFGQGTKLEIK
# B16: sd1.103 (antibody, V domains shown)
# VH: QVQLVQSGAEVKKPGSSMKVSCKASGGTLNNYAIIWVRQAPGQGLEWMGGIIPMFGAANYAQNFQGRVTITADESTRTAYLELSSLRSEDTAMYYCARVVIPYLGAHYYHYGVDVWGQGTTVTVSS
# VL: B15 VL with S30T, F33Y, F37Y, P44A, T57A, S64N, V80E, F88Y, S98T
# B17: rbd.046 (antibody, V domains shown)
# VH: EVQLVESGGGVVQPGRSLRLSCAASGFTFSHYGMHWVRQAPGKGLEWVAVISYDGSNKYYADSVKGRFTISRDNSKSTLYLQMNSLRAEDTAVYYCAKGEWYYDIFTGYYPYWGQGTLVTVSS
# VL: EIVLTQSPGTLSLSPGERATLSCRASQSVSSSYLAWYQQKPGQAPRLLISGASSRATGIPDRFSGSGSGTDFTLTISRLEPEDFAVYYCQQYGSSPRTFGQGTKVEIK
# B18: sd1.150 (antibody, V domains shown)
# V domain 1: EVQLVESGGGVVQPGRSLRLSCAASGFTFSSHGMHWVRQAPGRGLEWVAVISFDGRNKFYVDSVKGRFTISRDNSKNTLYLHMNSLRAADTAVYYCAKDHDPDGSGSYFSNWFDAWGQGTLVTVSS
# V domain 2: SYELTQPPSVSVSPGQTASITCSGDKLGDKYAYWYRQKPGQSPVVVIYQDNKRPSGIPERFSGSNSGNTATLTISGTQAMDEADYYCQAWDTYSGVFGTGTQVTVL
# B19: rbd.049 (antibody, V domains shown)
# VH: QLQLQESGPGLVKPSETLSLSCTVSGGSISSKSDYWGWIRQSPGKGLEWIGSIYYTGTTYYNPSLKSRVSISLDKSKNQFSLKLNSLTAADTALYYCARDPSIAVATTVYFDAWGQGTLVTVSS
# VL: EIVLTQSPGTLSLSPGERATLSCRASESVKSNYLAWYQQKLGQPPRLLIFGASTRATGIPDRFSGSGSGTDFTLTISRLEPEDFAVYYCQQYHTSPPRYTFGQGTKLEIK
# B20: rbd.043 (antibody, V domains shown)
# VH: QVQLVQSGAEVKKPGSSVKVSCKVSGGSFSNYGISWVRQAPGQGLEWMGGIIPLFGPADYAQKVQGRVTITADKSTSTAYMELRSLRSEDTAVYFCARGVEIVATIVGPLVREDHYYYYGMDVWGQGTTVTVSS
# VL: not shown
# B21: sd1.100 (antibody, V domains shown)
# VH: QVQLQESGPGLVKPSQTLSLTCSVSGDSITSGNYYWSWIRQHPGKGLEWIGNIFHTGNTYYNPSLKSRVTISIDTSKNQFSLKLSSVTAADTALYYCARDHKRLEGDWFDPWGQGSLVTVSS
# VL: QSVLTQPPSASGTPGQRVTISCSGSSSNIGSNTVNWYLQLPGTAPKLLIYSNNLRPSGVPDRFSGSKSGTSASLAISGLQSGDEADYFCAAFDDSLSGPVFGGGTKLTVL
# B22: sd1.108 (antibody, V domains shown)
# VH: QVQLVQSGAEVKKPGASVKVSCKASGYTFTSYYIHWVRQTPGQGLEWMGIINPRGGSTSYPQKFQGRVSMTRDTSTSTVFMELSSLRSDDTAVYYCAREHREDTAMDNQPSDSWGQGTLVTVSS
# VL: DIVMTQSPDSLSVSLGERATINCKSSRSVFYSSNNKSYLAWYQQKPGQPPKLLIYWASTRESGVRDRFSGSGSGTDFTLTISSLQAEDVAVYYCQQYYNTPYTFGQGTKLEIK
# B23: sd1.132 (antibody, V domains shown)
# VH: QVQLVQSGTEVKKPGSSVKVSCKASGGTFSSYAISWVRQAPGQGLEWMGGIIPMFGAPNYAQKVQGRVTITADESTSTAYMELSSLRSEDTAVYYCARMEYSNSPGRGGYYFYSNGMDVWGQGTTVTVSS
# VL: EIVLTQSPATLSLSPGERATLSCRASQSVSTYLAWLQQKPGQAPRLLMYDASNRASGIPARFSGSGSGTEFTLTISSLEPEDFAVYYCQQRTYWPLTFGGGTKVEIK
# Target: SD1-RBD of SARS-CoV-2 S (ancestral), aa 319-591 (SARS-CoV-2, ancestral (Wuhan-Hu-1; …, UniProt P0DTC2)
row,Binder,binding result
1,B1,binds
2,B2,binds
3,B3,binds
4,B4,binds
5,B5,binds
6,B6,binds
7,B7,binds
8,B8,binds
9,B9,binds
10,B10,binds
11,B11,binds
12,B12,binds
13,B13,binds
14,B14,binds
15,B15,binds
16,B16,binds
17,B17,binds
18,B18,binds
19,B19,binds
20,B20,binds
21,B21,binds
22,B22,binds
23,B23,binds
